Test results: patent publication US20250382376A1 (FUDAN UNIVERSITY, published 2025)
Where a chain is given by its changes, count along the chain named. Blank lines part the entries; values can stand above or below the binder they belong to.

Legend:
[1] = target: T1, CD73 on the surface of human cells (human, UniProt P21589 27-549); assay: cell-based or functional assay
T1 sequence (looked up): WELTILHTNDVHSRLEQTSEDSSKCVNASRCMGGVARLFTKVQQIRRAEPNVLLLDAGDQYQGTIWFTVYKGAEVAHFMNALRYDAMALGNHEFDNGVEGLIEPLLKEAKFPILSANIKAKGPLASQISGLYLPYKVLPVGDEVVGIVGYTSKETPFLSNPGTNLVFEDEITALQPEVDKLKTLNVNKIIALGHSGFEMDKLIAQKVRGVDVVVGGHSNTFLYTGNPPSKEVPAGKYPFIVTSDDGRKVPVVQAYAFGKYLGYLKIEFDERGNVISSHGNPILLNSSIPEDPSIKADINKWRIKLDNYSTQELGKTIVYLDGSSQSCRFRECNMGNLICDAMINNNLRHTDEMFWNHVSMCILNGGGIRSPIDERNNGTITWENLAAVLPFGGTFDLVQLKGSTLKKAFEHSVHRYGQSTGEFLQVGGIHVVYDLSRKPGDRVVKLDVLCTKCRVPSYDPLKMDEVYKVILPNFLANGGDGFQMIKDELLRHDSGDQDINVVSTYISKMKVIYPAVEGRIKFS

[2] = target: T2, extracellular domain of human CD73 protein, C-terminus polyhistidine-tagged (human, UniProt P21589 27-547); assay: ELISA on CD73-ECD, 4 µL supernatant of antibody expression, second of two readings; PBS 0.19, 0.18
T2 construct: also the immunogen; also called CD73-ECD; human CD73-ECD
T2 sequence: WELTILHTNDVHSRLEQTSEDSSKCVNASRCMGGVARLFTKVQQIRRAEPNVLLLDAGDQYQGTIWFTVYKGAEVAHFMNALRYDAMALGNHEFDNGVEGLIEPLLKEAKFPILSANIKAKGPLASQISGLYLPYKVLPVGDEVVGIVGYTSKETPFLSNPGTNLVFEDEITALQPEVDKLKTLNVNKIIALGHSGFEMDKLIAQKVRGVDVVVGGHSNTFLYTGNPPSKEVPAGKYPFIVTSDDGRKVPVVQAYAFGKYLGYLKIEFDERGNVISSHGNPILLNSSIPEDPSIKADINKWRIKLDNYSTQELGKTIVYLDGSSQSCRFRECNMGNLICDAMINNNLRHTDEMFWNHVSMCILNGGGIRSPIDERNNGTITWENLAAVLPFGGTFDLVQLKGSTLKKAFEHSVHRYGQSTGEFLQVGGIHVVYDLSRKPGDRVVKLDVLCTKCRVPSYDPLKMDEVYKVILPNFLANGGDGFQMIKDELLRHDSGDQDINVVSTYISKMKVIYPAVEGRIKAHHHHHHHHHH

[3] = target: T2, extracellular domain of human CD73 …; assay: ELISA on CD73-ECD, 20 µL supernatant of antibody expression, first of two readings; PBS 0.19, 0.18
Description: (§1) The CD73 protein extracellular region (CD73-ECD) was diluted to 1 μg/mL using the coating solution, and an ELISA plate was coated at 100 μL/well at 4° C. overnight. Excess antigens were washed away, and the plate was blocked with 1% BSA at room temperature for 2 hours. Then, 5-fold gradient dilutions of each monoclonal antibody were added at 100 μL/well and incubated at room temperature for 1 hour. Unbound antibodies were washed away, and an appropriate concentration of Staphylococcal protein A labeled with horseradish peroxidase was added at 100 μL/well and incubated at room temperature for 0.5 hours. Unbound secondary antibodies were washed away, and TMB color development solution was added to react for about 15 minutes. 1M HCL was added at 50 µL/well to terminate the color development reaction, and then the absorbance was measured at 450 nm and the data was analyzed.
(§2) CD73 antigen ELISA binding affinity test was performed according to the method of Example 3.

[4] = target: T2, extracellular domain of human CD73 …; assay: ELISA on CD73-ECD, 0.8 µL supernatant of antibody expression, second of two readings; PBS 0.19, 0.18
Description: as §1, §2

[5] = target: T2, extracellular domain of human CD73 …; assay: ELISA on CD73-ECD, 100 µL supernatant of antibody expression, first of two readings; PBS 0.19, 0.18
Description: as §1, §2

[6] = target: T2, extracellular domain of human CD73 …; assay: ELISA on CD73-ECD, 0.8 µL supernatant of antibody expression, first of two readings; PBS 0.19, 0.18
Description: as §1, §2

[7] = target: T2, extracellular domain of human CD73 …; assay: ELISA on CD73-ECD, 100 µL supernatant of antibody expression, second of two readings; PBS 0.19, 0.18
[8] = target: T2, extracellular domain of human CD73 …; assay: ELISA on CD73-ECD, 20 µL supernatant of antibody expression, second of two readings; PBS 0.19, 0.18
Description: as §1, §2

[9] = target: T2, extracellular domain of human CD73 …; assay: ELISA on CD73-ECD, 4 µL supernatant of antibody expression, first of two readings; PBS 0.19, 0.18
Description: as §1, §2

[10] = target: T2, extracellular domain of human CD73 …; assay: ELISA on human CD73-ECD, 10 µL supernatant of transfected HEK293F cells; PBS blank 0.0615
Description: as §1
(§3) For the five antibodies from yeast, after transient expression in HEK293F cells, the supernatant was collected after 2 days of continuous culture and ELISA assay was performed using 100 μL, 10 μL, and 1 μL of the supernatant.

[11] = target: T2, extracellular domain of human CD73 …; assay: ELISA on human CD73-ECD, 100 µL supernatant of transfected HEK293F cells; PBS blank 0.0675
Description: as §1, §3

[12] = target: T2, extracellular domain of human CD73 …; assay: ELISA on human CD73-ECD, 1 µL supernatant of transfected HEK293F cells; PBS blank 0.073
Description: as §1, §3

B1: humanized nanobody-drug conjugate 3D7-HM9-FC1-MMAE (Fc fusion, part only; not given: Fc segment and drug payload, part only)
VHH, part: QRQLVESGGGLVQPGGSLRLSCAASGFLLDYYVIGWFRQAPGKEREGVSCISGSDRSTYYADSVKGRFTISRDNAKNTVYLQMSSLRAEDTAVYYCAADPSPVTVQAMCLPRFPVPYWGKGTLVTVSS
modifications: vc-MMAE on cysteines; expected DAR 4 for the dimer
EC50, reversal of the AMP inhibition of human T lymphocyte proliferation [1]: 0.0197 µg/mL

B2: humanized antibody fusion protein 3D7-HM9-ABD (VHH)
VHH: B1 VHH, part
EC50, reversal of the AMP inhibition of human T lymphocyte proliferation [1]: 0.0467 µg/mL
IC50, inhibition of the catalytic function of CD73 enzyme on MDA-MB-231 cells [1]: 0.123 µg/mL

B3: 5-E11 derived antibody 5-E11AS (VHH, not shown: a dimerising Fc or GST)
VHH: ALQLVESGGGLVQPGGSLRLSCEVSGFTLDYYNIGWFRQAPGKEREGVSCSSASGGSTYYADSVKGRFTISRDNAKNTVYLQMNSLKPEDTGVYYCAAYRGWHPSLDARVYDYWGQGTEVTVSS
ELISA reading (not named on the sheet) [2]: 4.22
ELISA reading (not named on the sheet) [3]: 4.24
ELISA reading (not named on the sheet) [4]: 4.08
ELISA reading (not named on the sheet) [5]: 4.28
ELISA reading (not named on the sheet) [6]: 4.22
ELISA reading (not named on the sheet) [7]: 4.27
ELISA reading (not named on the sheet) [8]: 4.33
ELISA reading (not named on the sheet) [9]: 4.25

B4: 5-E11 derived antibody 5-E11QS (VHH, not shown: a dimerising Fc or GST)
VHH: B3 VHH with A53Q
ELISA reading (not named on the sheet) [2]: 4.16
ELISA reading (not named on the sheet) [3]: 4.17
ELISA reading (not named on the sheet) [4]: 4.08
ELISA reading (not named on the sheet) [5]: 4.32
ELISA reading (not named on the sheet) [6]: 4.17
ELISA reading (not named on the sheet) [7]: 4.28
ELISA reading (not named on the sheet) [8]: 4.29
ELISA reading (not named on the sheet) [9]: 4.23

B7: chimeric nanobody 3-A3 (Fc fusion)
VHH: QVQLVESGGGSVQPGGSLRLSCAASGFPLDYYTIGWFRQAPGKELEGVSCISSSDSSPYDADSVKGRFTMSRDNANNTVYLQMNSLKPEDTAVYYCAAQRYYYCSLRANVYDYWGQGTQVTVSS
notes: Tested as supernatant of transiently transfected HEK293F cells
ELISA (OD450) [10]: 2.11 OD450
ELISA (OD450) [11]: 4.27 OD450
ELISA (OD450) [12]: 0.605 OD450

B8: chimeric nanobody 3-F1 (Fc fusion)
VHH: B7 VHH with G9V, G10S, S11L, P28T, V48I, S52R, G66D, V93D, R107T
notes: as for B7
ELISA (OD450) [10]: 1.11 OD450
ELISA (OD450) [11]: 3.01 OD450
ELISA (OD450) [12]: 0.143 OD450

Continued, values first:

ELISA reading (not named on the sheet) [2]: 4.17
ELISA reading (not named on the sheet) [3]: 4.15
ELISA reading (not named on the sheet) [4]: 4.11
ELISA reading (not named on the sheet) [5]: 4.24
ELISA reading (not named on the sheet) [6]: 4.16
ELISA reading (not named on the sheet) [7]: 4.22
ELISA reading (not named on the sheet) [8]: 4.3
ELISA reading (not named on the sheet) [9]: 4.22
B5: 5-E11 derived antibody 5-E11GS (VHH, not shown: a dimerising Fc or GST)
VHH: B3 VHH with A53G

ELISA (OD450) [10]: 1.61 OD450
ELISA (OD450) [11]: 4.11 OD450
ELISA (OD450) [12]: 0.36 OD450
B6: chimeric nanobody 1-E7 (Fc fusion)
VHH: B3 VHH with A1Q, L2V, E23A, V24A, S51I, A53N, G55D, G92A, E119Q
notes: as for B7

ELISA (OD450) [10]: 3.35 OD450
ELISA (OD450) [11]: 4.41 OD450
ELISA (OD450) [12]: 0.924 OD450
B9: chimeric nanobody 2-G9 (Fc fusion)
VHH: B7 VHH with V2L, S11L, P28L, S105A, S124T
notes: as for B7

ELISA (OD450) [10]: 1.28 OD450
ELISA (OD450) [11]: 4.46 OD450
ELISA (OD450) [12]: 0.254 OD450
B10: chimeric nanobody 2-B10 (Fc fusion)
VHH: QLQLVESGGGLVQPGGSLRLSCAASGFTLDDNAIGWFRQAPGKEREGVACMRTSDGDTYYADSVKGRFTISRDNAKNTMYLQMNSLKPEDTAVYYCAAALGTYYSGFYYLAGDGMDYWGKGTLVTVSS
notes: as for B7
